Test results published in US20250340595A1 (published 2025).
Values joined by “and” are separate entries in the source; they are usually repeats but may differ in a detail not shown here. Equal values may be shown once. Read-outs that look alike come from different tables or passages of the source. Starred links: 1 amine or outer side, 2 acyl side, 3 side chain; linkers in the order of their positions; H or OH if unused. Positions of bridges follow the written chain, without caps; N, C: chain ends. Non-standard residues stand in square brackets, D forms with d. No end group written: not given here. *: point of attachment. TATB = O=C(C[*:1])N1CN(C(=O)C[*:2])CN(C(=O)C[*:3])C1; 1Nal = N[C@@H](Cc1cccc2ccccc12)C(=O)O; 2Nal = N[C@@H](Cc1ccc2ccccc2c1)C(=O)O; AzPro = azidopropyl, [N-]=[N+]=NCCC*; Hyp = O=C(O)[C@@H]1C[C@@H](O)CN1; tBuAla = CC(C)(C)C[C@H](N)C(=O)O; 4Pal = N[C@@H](Cc1ccncc1)C(=O)O; Tle = CC(C)(C)[C@H](N)C(=O)O; Aib = CC(C)(N)C(=O)O

How the values were obtained:
[1] = molecular target: T1, Recombinant cynomolgus TfR1, His6-tagged (a.a. 89-760) (cynomolgus, UniProt H9EXL1 89-760 (rhesus entry)); test: SPR, TfR1 on chip
T1 construct: range 89-760; same product number named for FP and SPR; also called Cyno TfR1; Acro Biosystems TFR-C524a
T1 sequence (chain, as listed by the source): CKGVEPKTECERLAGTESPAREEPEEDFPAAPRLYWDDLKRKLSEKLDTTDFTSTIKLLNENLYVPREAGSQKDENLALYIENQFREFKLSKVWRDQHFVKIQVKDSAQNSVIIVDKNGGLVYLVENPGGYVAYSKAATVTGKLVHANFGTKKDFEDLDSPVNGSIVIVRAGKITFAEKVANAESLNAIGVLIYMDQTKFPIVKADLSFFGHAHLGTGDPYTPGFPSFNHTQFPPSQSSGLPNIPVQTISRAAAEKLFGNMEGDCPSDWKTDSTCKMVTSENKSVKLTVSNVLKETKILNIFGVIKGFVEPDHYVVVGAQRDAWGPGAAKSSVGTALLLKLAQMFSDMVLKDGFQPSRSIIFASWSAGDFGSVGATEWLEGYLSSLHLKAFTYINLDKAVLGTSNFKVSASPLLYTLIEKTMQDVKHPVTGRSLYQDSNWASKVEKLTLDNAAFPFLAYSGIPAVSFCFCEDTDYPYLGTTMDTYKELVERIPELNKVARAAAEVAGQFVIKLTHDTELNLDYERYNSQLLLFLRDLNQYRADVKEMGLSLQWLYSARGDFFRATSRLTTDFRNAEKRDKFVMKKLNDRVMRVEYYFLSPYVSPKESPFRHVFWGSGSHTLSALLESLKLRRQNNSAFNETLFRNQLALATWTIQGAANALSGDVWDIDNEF

[2] = molecular target: T2, Human TfR1 protein (R&D Systems, 2474-TR or Acro Biosystems, CD1-H5243) (human, UniProt P02786 89-760); test: FP competition, competitor BCY15768
T2 sequence (P02786 89-760 limits assumed): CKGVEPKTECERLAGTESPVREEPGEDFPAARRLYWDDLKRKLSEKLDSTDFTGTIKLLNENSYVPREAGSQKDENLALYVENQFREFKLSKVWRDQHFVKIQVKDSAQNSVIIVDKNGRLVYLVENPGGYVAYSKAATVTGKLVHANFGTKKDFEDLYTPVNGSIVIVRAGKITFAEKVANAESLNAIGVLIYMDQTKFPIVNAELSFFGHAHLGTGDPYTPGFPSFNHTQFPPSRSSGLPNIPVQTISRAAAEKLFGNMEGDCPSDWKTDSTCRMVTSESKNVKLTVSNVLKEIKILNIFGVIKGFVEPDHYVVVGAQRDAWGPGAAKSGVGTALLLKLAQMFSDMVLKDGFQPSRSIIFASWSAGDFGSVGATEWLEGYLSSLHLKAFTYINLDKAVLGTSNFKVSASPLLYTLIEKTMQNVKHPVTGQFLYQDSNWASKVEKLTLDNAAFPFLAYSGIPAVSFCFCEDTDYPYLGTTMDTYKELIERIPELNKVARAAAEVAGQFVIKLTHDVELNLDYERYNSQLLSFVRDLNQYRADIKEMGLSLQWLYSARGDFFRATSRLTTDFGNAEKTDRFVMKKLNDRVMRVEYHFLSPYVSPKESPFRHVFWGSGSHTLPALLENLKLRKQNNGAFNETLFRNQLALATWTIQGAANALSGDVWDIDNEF

[3] = molecular target: T3, Recombinant human TfR1, His6-tagged (a.a. 89-760) (human, UniProt P02786 89-760); test: SPR, TfR1 on chip
T3 construct: range 89-760; captured and coupled on an NTA chip for SPR; also called transferrin receptor 1; CD71
T3 sequence (P02786 89-760 limits assumed): as above

[4] = molecular target: T2, Human TfR1 protein (R&D Systems, …); test: FP competition, competitor BCY15768; remark: listed apart in the source

Binder	Kd [1]	Ki [2] [µM]	Kd [3] [µM]	Ki [4] [µM]
ACSPDAYLGC[Tle]SYCA (linker 2-10-14 via TATB) [BCY16966]	1.9 µM	–	–	–
ACPPDAYLGC[Tle]SYCA (linker 2-10-14 via TATB) [BCY16964]	0.514 µM	–	–	–
ACSPDAHLGCIS[2Nal]CA (linker 2-10-14 via TATB) [BCY16031]	6.48 µM	0.119	0.068	0.119
ACSPDAHLGCIS[1Nal]CA (linker 2-10-14 via TATB) [BCY16029]	5.48 µM	–	–	–
ACSPDAHLGCIS[4Pal]CA (linker 2-10-14 via TATB) [BCY16032]	30 µM	0.654	0.305	0.654
ACPXDAHLGCISYCA (3 Cys on TATB; core as printed CP[Aib]DAHLGCISYC) [BCY16550]	0.682 µM	0.056	0.018	0.056
ACP[Aib]DAYLGC[Tle]SYCA (linker 2-10-14 via TATB) [BCY16963]	0.501 µM	–	–	–
ACS[Aib]DAHLGC[Tle]SYCA (linker 2-10-14 via TATB) [BCY16753]	1.7 µM	0.048	0.012	0.048
ACP[Aib]DAHLGC[Tle]SYCA (linker 2-10-14 via TATB) [BCY16962]	0.599 µM	0.036	0.0061	0.036
ACSPDAYLGC[tBuAla]SYCA (linker 2-10-14 via TATB) [BCY16558]	50 µM	1.62	20	1.62
Ac-CSPDAHLGCISYC (linker 1-9-13 via TATB) [BCY15891]	3.99 µM	0.094	0.046	0.067
Ac-CAPDAHLGCISYC (linker 1-9-13 via TATB (inferred)) [BCY17986]	4.66 µM	–	–	–
Ac-CSADAHLGCISYC (linker 1-9-13 via TATB (inferred)) [BCY17987]	5.14 µM	0.383	0.05	0.042
CPXDAYLGCXSYC (3 Cys on TATB; N-terminal acetyl (Ac); core as printed CP[HyP]DAYLGC[tBuGly]SYC) [BCY17991]	0.035 µM	0.003	0.0034	0.002
CPXDAYLGCXSYC (3 Cys on TATA; N-terminal acetyl (Ac); core as printed CP[HyP]DAYLGC[tBuGly]SYC, Same peptide as BCY17991 but cyclised on TATA) [BCY20546]	–	–	1.66	–
Ac-CSPDAHLGCISYCEPW-NH2 (linker 1-9-13 via TATB (inferred)) [BCY17994]	0.688 µM	0.008	–	0.008
CPXDAYLGCXSYCEPW (3 Cys on TATB; N-terminal acetyl (Ac); core as printed CP[HyP]DAYLGC[tBuGly]SYC) [BCY17995]	–	0.005	0.0034	0.002
NWNCPXDAYLGCXSYC (3 Cys on TATB; N-terminal acetyl (Ac); core as printed CP[HyP]DAYLGC[tBuGly]SYC) [BCY17993]	0.235 µM	0.005	0.009	0.003
NWNCPXDAYLGCXSYC (3 Cys on TATB; core as printed CP[HyP]DAYLGC[tBuGly]SYC) [BCY18033]	0.589 µM	0.006	–	0.004
HWMCSPDAHLGCISYCA (linker 4-12-16 via TATB) [BCY17110]	0.232 µM	0.022	0.015	0.022
ACSPDAHLGCISYCPHP-NH2 (linker 2-10-14 via TATB (inferred)) [BCY17115]	1.24 µM	0.03	0.06	0.03
Ac-CS[Hyp]DAHLGCISYC (linker 1-9-13 via TATB) [BCY17989]	–	–	–	0.03
TYMNCPPDAHLGCISYCA (linker 5-13-17 via TATB (inferred)) [BCY17117]	0.805 µM	0.037	0.0042	0.037

Binder	Kd [1]	Ki [2] [µM]	Kd [3] [µM]	Ki [4] [µM]
Ac-CPPDAHLGCISWC-NH2 (linker 1-9-13 via TATB; SMILES CC[C@H](C)[C@@H]1NC(=O)[C@@H]2CSCC(=O)N3CN(CN(C3)C(=O)CSC[C@H](NC(C)=O)C(=O)N3CCC[C@H]3C(=O)N3CCC[C@H]3C(=O)N[C@@H](CC(=O)O)C(=O)N[C@@H](C)C(=O)N[C@@H](Cc3c[nH]cn3)C(=O)N[C@@H](CC(C)C)C(=O)NCC(=O)N2)C(=O)CSC[C@@H](C(N)=O)NC(=O)[C@H](Cc2c[nH]c3ccccc23)NC(=O)[C@H](CO)NC1=O) [BCY15889]	–	–	–	0.04
IDSNCPNDAHLGCISYCA (linker 5-13-17 via TATB (inferred)) [BCY17118]	1.96 µM	0.07	0.12	0.07
WGKSCPIDAHLGCISYCA (linker 5-13-17 via TATB (inferred)) [BCY17116]	0.474 µM	0.075	0.001	0.075
HTSCSPDAHLGCISYCA (linker 4-12-16 via TATB) [BCY17111]	0.907 µM	0.086	0.0083	0.086
NWNCSPDAHLGCISYC (3 Cys on TATB; N-terminal acetyl (Ac); [NMeTrp] in N-terminal extension) [BCY18036]	7.31 µM	–	0.422	0.09
ESFCSPDAHLGCISYCA (linker 4-12-16 via TATB) [BCY17113]	1.66 µM	0.103	0.308	0.103
ACYLPDWXCGDEYCA (not fully specified; 3 Cys on TATB; core as printed CYLPDW[tBuAla]CGDEYC) [BCY15648]	–	–	–	0.107
CSPDAHLGCISYC (3 Cys on a scaffold (TATA or TATB assumed by the filing for non-inhibitory peptides; not stated for this one)) [BCY15935]	–	0.3	–	0.3
ACSPDAHLGCXSYCA (3 Cys on TATB; core as printed CSPDAHLGC[B-Melle]SYC (beta-methyl isoleucine)) [BCY16040]	–	–	–	20
ACSPDAHLGCISYCA (linker 2-10-14 via TATB) [BCY15468]	–	0.103	–	–
NWNCSPDAHLGCISYCK (3 Cys on TATB; C-terminal [K(N3)] 6-azido lysine) [BCY17870]	–	0.009	–	–
NWNCSPDAHLGCISYCA (linker 4-12-16 via TATB) [BCY17109]	0.281 µM and 0.535 µM	–	–	–
NWNCSPDAHLGCISYCK (3 Cys on TATB; N-terminal acetyl (Ac); C-terminal [K(N3)] 6-azido lysine) [BCY17871]	–	0.009	–	–
AzPro-CSPDAHLGCISYC (linker 1-9-13 via TATB (inferred)) [BCY17869]	–	0.03	–	–
Ac-CP[Hyp]DAYLGCISYC (linker 1-9-13 via TATB) [BCY17990]	–	0.008	–	–
Ac-NWNCSPDAHLGCISYC (linker 4-12-16 via TATB (inferred)) [BCY17992]	0.535 µM	–	–	–
Ac-N[1Nal]NCSPDAHLGCISYC (linker 4-12-16 via TATB) [BCY18034]	2.08 µM	–	–	–
Ac-N[dW]NCSPDAHLGCISYC (linker 4-12-16 via TATB (inferred)) [BCY18035]	10.3 µM	–	–	–
Ac-CSPDAHLGCISYCE[dP]W (linker 1-9-13 via TATB (inferred)) [BCY18038]	1.65 µM	–	–	–
ACSPDAHLGCISYCEPW (linker 2-10-14 via TATB (inferred)) [BCY17114]	0.845 µM	–	–	–
NEVCSPDAHLGCISYCA (linker 4-12-16 via TATB (inferred)) [BCY17112]	2.6 µM	–	–	–
ACSPDAHLGCISYCPIVH (linker 2-10-14 via TATB (inferred)) [BCY17120]	1.26 µM	–	–	–
